From PMC10540216, “Activity Guided Azide-methyllysine Photo-trapping for Substrate Profiling of Lysine Demethylases” (Journal of the American Chemical Society, 2023)

B1: DHX30_HUMAN (protein, UniProt Q7L2E3 1-1194, looked up)
ATP-dependent RNA helicase …: MFSLDSFRKDRAQHRQRQCKLPPPRLPPMCVNPTPGGTISRASRDLLKEFPQPKNLLNSVIGRALGISHAKDKLVYVHTNGPKKKKVTLHIKWPKSVEVEGYGSKKIDAERQAAAAACQLFKGWGLLGPRNELFDAAKYRVLADRFGSPADSWWRPEPTMPPTSWRQLNPESIRPGGPGGLSRSLGREEEEDEEEELEEGTIDVTDFLSMTQQDSHAPLRDSRGSSFEMTDDDSAIRALTQFPLPKNLLAKVIQIATSSSTAKNLMQFHTVGTKTKLSTLTLLWPCPMTFVAKGRRKAEAENKAAALACKKLKSLGLVDRNNEPLTHAMYNLASLRELGETQRRPCTIQVPEPILRKIETFLNHYPVESSWIAPELRLQSDDILPLGKDSGPLSDPITGKPYVPLLEAEEVRLSQSLLELWRRRGPVWQEAPQLPVDPHRDTILNAIEQHPVVVISGDTGCGKTTRIPQLLLERYVTEGRGARCNVIITQPRRISAVSVAQRVSHELGPSLRRNVGFQVRLESKPPSRGGALLFCTVGILLRKLQSNPSLEGVSHVIVDEVHERDVNTDFLLILLKGLQRLNPALRLVLMSATGDNERFSRYFGGCPVIKVPGFMYPVKEHYLEDILAKLGKHQYLHRHRHHESEDECALDLDLVTDLVLHIDARGEPGGILCFLPGWQEIKGVQQRLQEALGMHESKYLILPVHSNIPMMDQKAIFQQPPVGVRKIVLATNIAETSITINDIVHVVDSGLHKEERYDLKTKVSCLETVWVSRANVIQRRGRAGRCQSGFAYHLFPRSRLEKMVPFQVPEILRTPLENLVLQAKIHMPEKTAVEFLSKAVDSPNIKAVDEAVILLQEIGVLDQREYLTTLGQRLAHISTDPRLAKAIVLAAIFRCLHPLLVVVSCLTRDPFSSSLQNRAEVDKVKALLSHDSGSDHLAFVRAVAGWEEVLRWQDRSSRENYLEENLLYAPSLRFIHGLIKQFSENIYEAFLVGKPSDCTLASAQCNEYSEEEELVKGVLMAGLYPNLIQVRQGKVTRQGKFKPNSVTYRTKSGNILLHKSTINREATRLRSRWLTYFMAVKSNGSVFVRDSSQVHPLAVLLLTDGDVHIRDDGRRATISLSDSDLLRLEGDSRTVRLLKELRRALGRMVERSLRSELAALPPSVQEEHGQLLALLAELLRGPCGSFDVRKTADD
B2: GTF2I_HUMAN (protein, UniProt P78347 2-998, looked up)
General transcription factor …: AQVAMSTLPVEDEESSESRMVVTFLMSALESMCKELAKSKAEVACIAVYETDVFVVGTERGRAFVNTRKDFQKDFVKYCVEEEEKAAEMHKMKSTTQANRMSVDAVEIETLRKTVEDYFCFCYGKALGKSTVVPVPYEKMLRDQSAVVVQGLPEGVAFKHPENYDLATLKWILENKAGISFIIKRPFLEPKKHVGGRVMVTDADRSILSPGGSCGPIKVKTEPTEDSGISLEMAAVTVKEESEDPDYYQYNIQAGPSETDDVDEKQPLSKPLQGSHHSSEGNEGTEMEVPAEDSTQHVPSETSEDPEVEVTIEDDDYSPPSKRPKANELPQPPVPEPANAGKRKVREFNFEKWNARITDLRKQVEELFERKYAQAIKAKGPVTIPYPLFQSHVEDLYVEGLPEGIPFRRPSTYGIPRLERILLAKERIRFVIKKHELLNSTREDLQLDKPASGVKEEWYARITKLRKMVDQLFCKKFAEALGSTEAKAVPYQKFEAHPNDLYVEGLPENIPFRSPSWYGIPRLEKIIQVGNRIKFVIKRPELLTHSTTEVTQPRTNTPVKEDWNVRITKLRKQVEEIFNLKFAQALGLTEAVKVPYPVFESNPEFLYVEGLPEGIPFRSPTWFGIPRLERIVRGSNKIKFVVKKPELVISYLPPGMASKINTKALQSPKRPRSPGSNSKVPEIEVTVEGPNNNNPQTSAVRTPTQTNGSNVPFKPRGREFSFEAWNAKITDLKQKVENLFNEKCGEALGLKQAVKVPFALFESFPEDFYVEGLPEGVPFRRPSTFGIPRLEKILRNKAKIKFIIKKPEMFETAIKESTSSKSPPRKINSSPNVNTTASGVEDLNIIQVTIPDDDNERLSKVEKARQLREQVNDLFSRKFGEAIGMGFPVKVPYRKITINPGCVVVDGMPPGVSFKAPSYLEISSMRRILDSAEFIKFTVIRPFPGLVINNQLVDQSESEGPVIQESAEPSQLEVPATEEIKETDGSSQIKQEPDPTW

Test system: KDM4A-I71AzF
Test: CASI: photo-crosslinking with HEK293T cell extracts, StrepTactin enrichment and LC-MS/MS proteomics;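 also: lysates from HEK293T cells pretreated with a KDM4 inhibitor to raise proteome methylation, affinity-purified after ±UV, gel-resolved, trypsin-digested, with exclusive unique peptides per protein averaged per condition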
Format: binding, human
Details: sheet "Final results but with 0.01"

| Molecule | Fold change (+UV/-UV) |
| --- | --- |
| B1 | 0.75 |
| B2 | 3 |
